The text below walks through data of patent US20120164129.

The target in one series is Fibrinogen (UniProt P02671).
The target in series [1] is Ecarin-activatable E-WE Prethrombin-2 (W215A/E217A/N282D/P283G).

Sequence of UniProt P02671 (P02671 20-629, chain 1 of 3): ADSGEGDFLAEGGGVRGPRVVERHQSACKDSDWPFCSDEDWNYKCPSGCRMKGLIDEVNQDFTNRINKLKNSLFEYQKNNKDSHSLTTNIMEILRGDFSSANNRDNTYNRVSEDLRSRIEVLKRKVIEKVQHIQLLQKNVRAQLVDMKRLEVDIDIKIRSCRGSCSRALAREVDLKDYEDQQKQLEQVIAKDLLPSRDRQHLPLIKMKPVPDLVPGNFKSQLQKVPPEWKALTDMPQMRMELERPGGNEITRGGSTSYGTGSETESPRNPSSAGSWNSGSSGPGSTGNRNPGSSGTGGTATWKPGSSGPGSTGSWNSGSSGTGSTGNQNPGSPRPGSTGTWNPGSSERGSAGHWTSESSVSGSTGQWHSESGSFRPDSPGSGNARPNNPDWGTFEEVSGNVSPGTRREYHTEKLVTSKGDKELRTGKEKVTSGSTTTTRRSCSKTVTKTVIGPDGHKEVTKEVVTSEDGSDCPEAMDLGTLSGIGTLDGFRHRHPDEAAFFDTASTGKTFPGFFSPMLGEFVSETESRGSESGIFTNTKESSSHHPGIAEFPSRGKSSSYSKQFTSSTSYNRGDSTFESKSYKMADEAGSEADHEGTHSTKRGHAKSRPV
Sequence of UniProt P02671 (chain, as listed by the source, chain 2 of 3): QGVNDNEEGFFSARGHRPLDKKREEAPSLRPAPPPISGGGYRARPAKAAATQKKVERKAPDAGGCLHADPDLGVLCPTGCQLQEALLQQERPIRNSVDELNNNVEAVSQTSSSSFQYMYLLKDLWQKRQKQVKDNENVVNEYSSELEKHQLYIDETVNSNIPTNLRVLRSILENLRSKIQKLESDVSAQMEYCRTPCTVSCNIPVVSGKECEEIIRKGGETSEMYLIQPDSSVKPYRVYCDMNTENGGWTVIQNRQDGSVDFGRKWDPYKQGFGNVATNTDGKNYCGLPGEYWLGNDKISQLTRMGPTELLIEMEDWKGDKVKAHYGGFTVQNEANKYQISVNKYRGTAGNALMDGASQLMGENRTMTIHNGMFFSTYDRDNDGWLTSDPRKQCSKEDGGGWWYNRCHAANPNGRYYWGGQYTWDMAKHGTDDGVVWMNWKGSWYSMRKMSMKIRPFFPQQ
Sequence of UniProt P02671 (chain, as listed by the source, chain 3 of 3): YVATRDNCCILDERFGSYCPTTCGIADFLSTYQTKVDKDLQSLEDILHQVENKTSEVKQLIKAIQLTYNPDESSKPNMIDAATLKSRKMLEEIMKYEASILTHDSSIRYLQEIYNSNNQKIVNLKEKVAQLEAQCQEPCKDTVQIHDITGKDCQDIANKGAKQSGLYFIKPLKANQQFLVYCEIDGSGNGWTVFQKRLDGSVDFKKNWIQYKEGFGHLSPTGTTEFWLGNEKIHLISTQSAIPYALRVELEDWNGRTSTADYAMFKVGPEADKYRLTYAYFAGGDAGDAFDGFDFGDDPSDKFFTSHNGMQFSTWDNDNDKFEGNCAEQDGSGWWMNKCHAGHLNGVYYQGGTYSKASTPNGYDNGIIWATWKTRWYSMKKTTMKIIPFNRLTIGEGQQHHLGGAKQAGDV

For “E. coli-derived recombinant E-WE thrombin (W215A/E217A), prepared from E-WE prethrombin-2 expressed in E. coli”, the specificity toward fibrinogen result in the series with Fibrinogen is “consistently shows lower specificity toward fibrinogen compared to the BHK-expressed construct”.

In the case of “WE thrombin (W215A/E217A) prepared from WE prethrombin-1 expressed in BHK cells”, in the series with Fibrinogen, the activity toward fibrinogen result was “BHK produces a construct with significantly higher activity toward FPR and fibrinogen”.

B1: Echis carinatus snake venom prothrombin activator (ecarin) (protein)
chain: VPPHERKFEKKFIELVVVVDHSMVTKYNNDSTAIRTWIYEMLNTVNEIYLPFNIRVALVGLEFWCNGDLINVTSTADDTLHSFGEWRASDLLNRKRHDHAQLLTNVTLDHSTLGITFVYGMCKSDRSVELILDYSNITFNMAYIIAHEMGHSLGMLHDTKFCTCGAKPCIMFGKESIPPPKEFSSCSYDQYNKYLLKYNPKCILDPPLRKDIASPAVCGNEIWEEGEECDCGSPADCRNPCCDAATCKLKPGAECGNGECCDKCKIRKAGTECRPARDDCDVAEHCTGQSAECPRNEFQRNGQPCLNNSGYCYNGDCPIMLNQCIALFSPSATVAQDSCFQRNLQGSYYGYCTKEIGYYGKRFPCAPQDVKCGRLYCLDNSFKKNMRCKNDYSYADENKGIVEPGTKCEDGKVCINRKCVDVNTAY
Regarding B1, in series [1], the “proteolytic cleavage at the engineered ecarin site” value is “Cleavage also occurred at the engineered ecarin site that had been introduced preceding the A chain”; the “proteolytic cleavage between the A and B chains” value is “The expected cleavage took place between the A and B chains to form an A chain-extended E-WE thrombin”.
